In experiment [1] the target is T1, human PD-L1 on cells (human, UniProt Q9NZQ7 19-290).
T1 construct: also called hPD-L1; PD-L1 on IFNγ-induced SK-MEL-28 (SKMEL28) cells
The experiment can be described thus: flow cytometry of a dissociated CT26 hPD-L1 positive tumor 4 h after intraperitoneal injection of both labeled agents; same quadrant of the PD-L1 negative tumor: 3.97 [panel CT26, hPD-L1 positive]. (A flow cytometer gives signals particle by particle.)

Experiment [2] addresses T2, recombinant biotinylated human PD-L1 ectodomain (IgV and IgC domains, residues 19-239) (human, UniProt Q9NZQ7 19-239, enzymatically biotinylated (BirA) on the biotin acceptor peptide).
T2 construct: also called biotinylated hPD-L1; biotinylated PD-L1; not shown: carboxy-terminal 8x histidine tag
The experiment can be described thus: surface plasmon resonance, biotinylated hPD-L1 immobilized on a streptavidin chip; column head 'PD-L1 affinity'.

Experiment [3] concerns the target T2, recombinant biotinylated human PD-L1 …. The description is as above. The source holds these as a separate data set.
Experiment [4] addresses T3, human PD-L1 displayed on yeast (residues 19-132) (human; S. cerevisiae, UniProt Q9NZQ7 19-132).
T3 construct: also called yeast displaying human PD-L1; not shown: Aga2 of S. cerevisiae (pYAL vector); linker and tag between not g
The experiment can be described thus: competition flow cytometry on yeast displaying human PD-L1; competitor probe: labeled native PD-1 streptavidin tetramer.

Experiment [5] has as its target T2, recombinant biotinylated human PD-L1 …. The experiment can be described thus: SPR, biotinylated PD-L1 on streptavidin chip. Background: In SPR one partner is held on a chip, and binding of the other changes the refractive index at the surface.
Experiment [6] concerns the target T1, human PD-L1 on cells. Put plainly: competition flow cytometry on IFNγ-induced SK-MEL-28 cells, 100 nM labeled PD-1 tetramer as competitor.
The target of experiment [7] is T4, mouse PD-L1 on B16-F10 cells (mouse, UniProt Q9EP73 19-290).
T4 construct: whole, on cells; also called mPD-L1; PD-L1 on murine B16-F10 cells
Put plainly: competition flow cytometry on murine B16-F10 cells, 100 nM PD-1 tetramer as competitor; wild-type hPD-1 on murine B16-F10 cells.

Experiment [8] has as its target T5, human PD-L2 displayed on yeast (residues 20-123) (human; S. cerevisiae, UniProt Q9BQ51 20-123).
T5 construct: also called yeast displaying hPD-L2; ectodomain of hPD-L2; not shown: Aga2 of S. cerevisiae (pYAL vector); linker and tag between not g
T5 sequence: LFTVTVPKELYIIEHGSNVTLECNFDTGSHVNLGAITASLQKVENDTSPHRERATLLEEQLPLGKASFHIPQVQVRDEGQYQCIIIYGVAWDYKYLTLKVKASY
The experiment can be described thus: competition flow cytometry on yeast displaying the ectodomain of hPD-L2, 100 nM PD-1 tetramer as competitor; wild-type PD-1 on yeast displaying hPD-L2.

Experiment [9] addresses T5, human PD-L2 displayed on yeast …. The experiment can be described thus: competition flow cytometry on yeast displaying human PD-L2; competitor probe: labeled native PD-1 streptavidin tetramer.

Results on eight molecules are retold here after patent publication US20160039903A1 (Stanford University, published 2016).

Where two headings read alike, the source gives them in different places.

T2 sequence (Q9NZQ7 other isoform, or with tags, fused parts or gaps): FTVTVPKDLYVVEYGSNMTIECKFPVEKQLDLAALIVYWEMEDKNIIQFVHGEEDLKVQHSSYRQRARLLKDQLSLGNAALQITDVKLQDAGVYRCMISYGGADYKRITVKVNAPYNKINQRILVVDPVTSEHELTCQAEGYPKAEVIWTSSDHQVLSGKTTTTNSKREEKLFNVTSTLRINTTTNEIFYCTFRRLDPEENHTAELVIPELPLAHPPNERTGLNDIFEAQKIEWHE
T3 sequence (Q9NZQ7 19-132 limits assumed): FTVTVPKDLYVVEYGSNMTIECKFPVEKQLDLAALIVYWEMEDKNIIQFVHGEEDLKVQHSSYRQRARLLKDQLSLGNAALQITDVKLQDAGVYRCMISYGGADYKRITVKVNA
T1 sequence (Q9NZQ7 19-290 limits assumed): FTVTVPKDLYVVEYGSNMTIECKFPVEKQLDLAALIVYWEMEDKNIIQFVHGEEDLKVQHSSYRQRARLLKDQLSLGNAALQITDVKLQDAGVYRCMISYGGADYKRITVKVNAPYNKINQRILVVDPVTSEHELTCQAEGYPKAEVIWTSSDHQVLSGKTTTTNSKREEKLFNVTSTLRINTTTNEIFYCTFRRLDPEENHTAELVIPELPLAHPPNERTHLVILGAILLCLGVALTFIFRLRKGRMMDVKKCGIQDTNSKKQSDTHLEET
T4 sequence (Q9EP73 19-290): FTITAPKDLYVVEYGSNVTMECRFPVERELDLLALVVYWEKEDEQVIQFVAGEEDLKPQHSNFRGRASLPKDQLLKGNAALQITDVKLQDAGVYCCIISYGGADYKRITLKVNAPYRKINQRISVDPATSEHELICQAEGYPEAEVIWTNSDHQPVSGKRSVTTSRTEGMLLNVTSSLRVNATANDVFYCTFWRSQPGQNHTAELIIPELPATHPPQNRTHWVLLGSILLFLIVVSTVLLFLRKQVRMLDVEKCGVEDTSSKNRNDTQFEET

The molecule “AlexaFluor 488-conjugated anti-hPD-L1 antibody (clone 29E.2A3, BioLegend)” displayed a percent of cells in the quadrant HAC 594 negative, Anti-hPD-L1 488 positive with human PD-L1 on cells [1] of 2.22%.

B1: G1 4-1 (designed binder)
PD-1 variant IgV domain: DSPDRPWNPPTFSPALLVVTEGDNATFTCSFSNTSESFRLVWHRESPGYETDTLASFPEDRSTPLPDCRFRVTQLPNGRDFHMSVVRARRNDSGTYVCGAIAFHPVIQIKESLRAELRVTER
notes: also called Generation 1, clone 4-1
Consider B1, for which the Kd in experiment [2] and in [3] was 7.78 nM throughout. The “IC50 (read off the curve)” value in [4] is around 100 nM.

B2: G1 4-4 (designed binder)
PD-1 variant IgV domain: DSPDRPWNPPTFSPALLVVTEGDNATFTCSFSNTSESFRLVWHRESPNNHAYTLALFPEDRSLPFPDCRFRVTQLPNGRDFHMSVVRARRNDSGTYICGAITFDPRIQIKESLRAELRVTER
notes: also called Generation 1, clone 4-4
As to B2, the Kd in experiment [2] and in [3] was 10.7 nM throughout. Besides, the “IC50 (read off the curve)” value in experiment [4] is around 100 nM.

B3: wild-type human PD-1 IgV domain (residues 26-147), native PD-1 mimic polypeptide (receptor)
chain: DSPDRPWNPPTFSPALLVVTEGDNATFTCSFSNTSESFVLNWYRMSPSNQTDKLAAFPEDRSQPGQDCRFRVTQLPNGRDFHMSVVRARRNDSGTYLCGAISLAPKAQIKESLRAELRVTERHHHHHHHH
notes: Soluble monomer secreted from High Five insect cells; also called wild-type hPD-1; WT PD-1 monomer
For the molecule B3, in experiment [5], the dissociation half-life is below 1 s. Also, the Kd in experiment [2] and in experiment [3] was 3880 nM in each case. Also, the values for the IC50 (in the experiment with human PD-L1 on cells [6]; in experiment [7]; in experiment [8]) were 8200 nM, 2600 nM and 2500 nM, respectively.

B4: G2 4-2 (designed binder)
chain: DSPDRPWNPPTFSPALLVVTEGDNATFTCSFSNTSESFHIIWHRESPSGQTDTLAAFPEDRSQPGQDARFRVTQLPNGRDFHLSVVRARRNDSGTYVCGVISLAPKIQIKESLRAELRVTERHHHHHHHH
For the molecule B4, the Kd in experiment [2] and in [3] was 0.222 nM throughout. In experiment [9], the binding result is “no binding (tested: 1e-6 M (Log[Inhibitor (M)] = -6))”.

B5: G2 4-1 (Generation 2, clone 4-1) (designed binder)
chain: DSPDRPWNPPTFSPALLVVTEGDNATFTCSFSNTSESFHVVWHRESPSGQTDTLAAFPEDRSQPGPDARFRVTQLPNGRDFHLSVVRARRNDSGTYVCGAISLAPKIQIKESLRAELRVTERHHHHHHHH
Regarding B5, the Kd in [2] and in experiment [3] was 0.267 nM throughout. In experiment [9], the binding result was “no binding (tested: 1e-6 M (Log[Inhibitor (M)] = -6))”.

B6: G2 4-12 (designed binder)
PD-1 variant IgV domain: DSPDRPWNPPTFSPALLVVTEGDNATFTCSFSNTSESFHVVWHYESPSGQTDTLAAFPEDRSQPGQDARFRVTQLPNGRDFHLSVVRARRNDSGTYVCGIISLAPKIQIKESLRAELRVTER
notes: also called Generation 2, clone 4-12
As for B6, the Kd in experiment [2] and in [3] was 0.218 nM throughout.

B7: G2 4-5 (designed binder)
PD-1 variant IgV domain: DSPDRPWNPPTFSPALLVVTEGDNATFTCSFSNTSESFHVVWHRESPSSQTDTLAAFPEDRSQPGPDARFRVTQLPNGRDFQLSVVRARRNDSGTYVCGVISLAPKIQIKESLRAELRVTER
notes: also called Generation 2, clone 4-5
On to B7, for which the Kd in experiment [2] and in [3] was 0.196 nM throughout.

Broadly, the Kd is the concentration at which binding is half-saturated. Usually IC50 stands for the concentration that inhibits the measured activity by half.
